{"source": "patent US20170088593A1", "about": "(UNIVERSITY OF FLORIDA RESEARCH FOUNDATION, published 2017)", "target": "Keap-1 (UniProt Q14145 1-624)", "sequence (Q14145 whole entry, the tested form may be a part)": "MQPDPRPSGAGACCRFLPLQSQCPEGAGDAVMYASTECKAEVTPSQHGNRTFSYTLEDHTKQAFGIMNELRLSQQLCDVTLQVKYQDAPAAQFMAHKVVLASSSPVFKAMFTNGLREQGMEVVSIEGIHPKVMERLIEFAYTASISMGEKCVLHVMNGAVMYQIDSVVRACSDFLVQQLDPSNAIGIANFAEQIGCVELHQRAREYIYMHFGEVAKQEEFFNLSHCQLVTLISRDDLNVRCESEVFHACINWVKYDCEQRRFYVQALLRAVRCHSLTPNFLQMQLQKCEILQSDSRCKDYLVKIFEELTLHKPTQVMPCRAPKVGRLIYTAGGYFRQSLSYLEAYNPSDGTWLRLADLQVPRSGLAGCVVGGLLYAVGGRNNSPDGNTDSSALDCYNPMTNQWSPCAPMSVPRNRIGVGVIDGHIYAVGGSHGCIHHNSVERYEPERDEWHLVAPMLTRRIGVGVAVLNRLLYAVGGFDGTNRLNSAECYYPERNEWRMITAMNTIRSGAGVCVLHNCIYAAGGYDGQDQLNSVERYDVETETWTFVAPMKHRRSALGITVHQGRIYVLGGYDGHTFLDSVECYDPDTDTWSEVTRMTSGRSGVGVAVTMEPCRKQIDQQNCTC", "assay": "cell-based or functional assay", "data": [{"binder": "RKKRRQRRRLQLDEETGEFLPIQ", "note": "[TatNrf2-14mer peptide (HIV-1 Tat cell penetrating peptide fused to the Nrf2 14mer)]", "values": [{"measurement": "GSTM1 mRNA (antioxidant enzyme and marker of the ARE response), RT-PCR in human retinal pigment epithelial cells treated with the TatNrf2 plasmid", "result": 18, "unit": "fold"}]}]}
